# Data from IntAct's records for PubMed 21321230.
# Tests used:
# [1] = biological target: dcc_rat Dcc (UniProt Q63155)
# [2] = biological target: dcc_rat Dcc (UniProt Q63155); remark: listed apart in the source
# UniProt Q63155, sequence (Q63155 whole entry): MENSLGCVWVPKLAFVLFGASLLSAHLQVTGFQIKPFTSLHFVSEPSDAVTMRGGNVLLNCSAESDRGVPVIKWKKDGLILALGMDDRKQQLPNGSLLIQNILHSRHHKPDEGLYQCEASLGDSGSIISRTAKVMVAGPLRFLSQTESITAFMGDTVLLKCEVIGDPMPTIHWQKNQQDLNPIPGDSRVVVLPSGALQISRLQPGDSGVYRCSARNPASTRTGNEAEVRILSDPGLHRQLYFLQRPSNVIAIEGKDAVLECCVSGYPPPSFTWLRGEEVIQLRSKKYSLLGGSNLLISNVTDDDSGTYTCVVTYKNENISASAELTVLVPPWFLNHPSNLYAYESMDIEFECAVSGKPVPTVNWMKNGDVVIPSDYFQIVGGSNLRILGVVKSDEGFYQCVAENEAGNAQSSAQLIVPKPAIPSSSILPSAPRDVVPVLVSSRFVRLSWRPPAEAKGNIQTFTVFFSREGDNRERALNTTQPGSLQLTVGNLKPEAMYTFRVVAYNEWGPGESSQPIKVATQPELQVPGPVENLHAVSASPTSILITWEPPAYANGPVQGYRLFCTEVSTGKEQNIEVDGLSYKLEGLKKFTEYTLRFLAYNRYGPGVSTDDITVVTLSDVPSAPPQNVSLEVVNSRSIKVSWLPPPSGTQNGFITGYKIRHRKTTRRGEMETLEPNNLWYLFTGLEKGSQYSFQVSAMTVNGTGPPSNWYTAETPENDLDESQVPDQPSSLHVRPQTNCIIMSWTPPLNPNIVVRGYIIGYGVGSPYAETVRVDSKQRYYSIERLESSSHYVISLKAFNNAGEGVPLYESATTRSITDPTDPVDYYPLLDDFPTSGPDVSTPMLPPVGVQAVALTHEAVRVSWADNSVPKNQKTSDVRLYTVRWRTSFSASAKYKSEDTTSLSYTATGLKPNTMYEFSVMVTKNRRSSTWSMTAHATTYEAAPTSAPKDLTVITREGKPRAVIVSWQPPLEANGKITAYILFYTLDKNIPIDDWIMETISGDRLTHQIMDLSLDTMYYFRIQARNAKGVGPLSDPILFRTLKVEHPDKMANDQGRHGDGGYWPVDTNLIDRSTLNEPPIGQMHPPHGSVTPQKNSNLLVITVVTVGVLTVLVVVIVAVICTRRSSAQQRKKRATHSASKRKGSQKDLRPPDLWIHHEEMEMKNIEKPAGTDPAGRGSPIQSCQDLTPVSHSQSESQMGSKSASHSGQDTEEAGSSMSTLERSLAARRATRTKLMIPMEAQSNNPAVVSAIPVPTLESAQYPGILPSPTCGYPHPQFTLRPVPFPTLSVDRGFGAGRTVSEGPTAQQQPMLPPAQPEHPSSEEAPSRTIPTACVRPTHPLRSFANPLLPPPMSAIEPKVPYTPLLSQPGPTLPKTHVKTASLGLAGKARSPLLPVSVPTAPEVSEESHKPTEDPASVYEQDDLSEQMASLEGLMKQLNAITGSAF
Substance,effect of a mutation on the interaction [1],effect of a mutation on the interaction [2]
"Unconventional myosin-X (Homo sapiens), Q9HD67 I2037E",disrupting interaction strength,
"Unconventional myosin-X (Homo sapiens), Q9HD67 S1718A;H1719A",,disrupting interaction strength
"Unconventional myosin-X (Homo sapiens), Q9HD67 S1718A;H1719A;D1763A;E1769A;K1770A",,disrupting interaction strength
